Results published in article PMC10528418 (Molecular cell, 2023).

Experiments:
Assay in all cases: cryo-EM structure
TFIIIC subunit τ138 = target: T1, TFIIIC subunit τ138 (S. cerevisiae, UniProt P34111 1-1160)
T1 sequence (looked up): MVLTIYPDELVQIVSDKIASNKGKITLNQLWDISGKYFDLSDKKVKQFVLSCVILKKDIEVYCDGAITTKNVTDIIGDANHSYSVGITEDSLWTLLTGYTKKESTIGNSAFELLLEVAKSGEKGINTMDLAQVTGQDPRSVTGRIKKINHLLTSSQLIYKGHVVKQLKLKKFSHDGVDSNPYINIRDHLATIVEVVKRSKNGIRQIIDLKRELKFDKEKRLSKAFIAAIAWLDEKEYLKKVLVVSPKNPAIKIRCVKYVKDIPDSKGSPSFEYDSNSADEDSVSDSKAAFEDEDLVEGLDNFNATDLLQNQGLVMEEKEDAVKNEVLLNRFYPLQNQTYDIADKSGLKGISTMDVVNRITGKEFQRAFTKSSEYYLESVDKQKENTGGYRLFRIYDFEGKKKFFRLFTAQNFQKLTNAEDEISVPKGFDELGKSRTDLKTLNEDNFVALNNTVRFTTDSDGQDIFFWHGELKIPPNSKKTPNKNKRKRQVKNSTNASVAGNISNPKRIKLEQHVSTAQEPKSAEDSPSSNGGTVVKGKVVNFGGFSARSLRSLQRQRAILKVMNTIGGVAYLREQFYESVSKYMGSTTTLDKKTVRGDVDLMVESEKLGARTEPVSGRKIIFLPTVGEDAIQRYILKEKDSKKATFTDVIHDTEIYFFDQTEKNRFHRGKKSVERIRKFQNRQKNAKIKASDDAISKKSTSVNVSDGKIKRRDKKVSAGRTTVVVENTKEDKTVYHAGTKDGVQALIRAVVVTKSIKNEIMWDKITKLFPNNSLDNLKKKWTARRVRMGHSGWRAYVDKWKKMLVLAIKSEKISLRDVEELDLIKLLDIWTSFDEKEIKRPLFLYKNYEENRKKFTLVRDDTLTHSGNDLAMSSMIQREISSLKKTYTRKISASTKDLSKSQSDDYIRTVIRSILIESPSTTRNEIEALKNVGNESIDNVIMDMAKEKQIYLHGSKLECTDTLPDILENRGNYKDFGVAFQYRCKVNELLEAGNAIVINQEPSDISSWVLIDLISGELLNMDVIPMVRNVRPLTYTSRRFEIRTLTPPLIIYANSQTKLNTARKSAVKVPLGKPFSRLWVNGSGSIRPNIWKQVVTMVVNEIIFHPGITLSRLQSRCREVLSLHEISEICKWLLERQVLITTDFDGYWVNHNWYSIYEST

TFIIIC subunit τ91 = target: T2, TFIIIC subunit τ91 (S. cerevisiae, UniProt Q06339 1-672)
T2 sequence (looked up): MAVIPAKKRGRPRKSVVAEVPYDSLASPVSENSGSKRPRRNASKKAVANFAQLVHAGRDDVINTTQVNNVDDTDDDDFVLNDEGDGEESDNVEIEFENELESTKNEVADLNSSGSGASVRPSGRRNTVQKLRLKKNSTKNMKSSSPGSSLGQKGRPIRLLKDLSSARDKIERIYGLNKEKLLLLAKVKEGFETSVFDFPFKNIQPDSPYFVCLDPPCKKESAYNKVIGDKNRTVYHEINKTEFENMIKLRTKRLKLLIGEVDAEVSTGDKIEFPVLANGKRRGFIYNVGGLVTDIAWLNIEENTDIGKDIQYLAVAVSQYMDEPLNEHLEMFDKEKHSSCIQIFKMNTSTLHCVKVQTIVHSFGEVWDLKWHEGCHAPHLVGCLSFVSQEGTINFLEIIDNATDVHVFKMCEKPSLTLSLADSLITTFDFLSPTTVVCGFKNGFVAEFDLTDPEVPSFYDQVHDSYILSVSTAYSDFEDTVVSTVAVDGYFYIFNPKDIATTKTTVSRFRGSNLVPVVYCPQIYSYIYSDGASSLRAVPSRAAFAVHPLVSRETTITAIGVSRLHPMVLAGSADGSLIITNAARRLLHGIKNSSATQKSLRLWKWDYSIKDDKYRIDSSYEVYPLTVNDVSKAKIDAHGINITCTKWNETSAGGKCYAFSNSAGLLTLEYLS

TFIIIC subunit τ95 = target: T3, TFIIIC subunit τ95 (S. cerevisiae, UniProt P32367 1-649)
T3 sequence (looked up): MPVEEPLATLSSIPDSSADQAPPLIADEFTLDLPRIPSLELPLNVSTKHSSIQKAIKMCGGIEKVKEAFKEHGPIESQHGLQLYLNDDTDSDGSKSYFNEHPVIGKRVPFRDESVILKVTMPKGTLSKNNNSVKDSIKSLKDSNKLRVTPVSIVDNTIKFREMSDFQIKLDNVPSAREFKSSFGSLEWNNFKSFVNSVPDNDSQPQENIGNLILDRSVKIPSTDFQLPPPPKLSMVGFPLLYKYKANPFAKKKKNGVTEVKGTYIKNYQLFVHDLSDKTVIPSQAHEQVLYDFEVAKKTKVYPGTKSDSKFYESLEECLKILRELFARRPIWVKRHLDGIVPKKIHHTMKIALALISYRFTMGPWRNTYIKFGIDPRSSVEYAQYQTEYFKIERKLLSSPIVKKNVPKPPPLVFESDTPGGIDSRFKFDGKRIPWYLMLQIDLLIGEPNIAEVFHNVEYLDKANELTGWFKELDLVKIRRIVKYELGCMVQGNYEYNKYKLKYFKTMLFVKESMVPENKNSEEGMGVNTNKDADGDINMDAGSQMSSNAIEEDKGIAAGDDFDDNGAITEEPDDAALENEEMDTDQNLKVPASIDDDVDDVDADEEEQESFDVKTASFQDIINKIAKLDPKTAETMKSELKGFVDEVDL

B1: TFIIIC subunit τ60 (natural protein, S. cerevisiae)
chain: MKLLKDLLVDRKEFEDWKNNLTWARDGTLYLTTFPDISIGQPKYAKDINCNSKNLFHVKEFPLEFENKLDFELAQQNGLLNSQPVCYPRVCKPSPIDDWMAVLSNNGNVSVFKDNKMLTNLDSKGNLSSRTYHCFEWNPIESSIVVGNEDGELQFFSIRKNSENTPEFYFESSIRLSDAGSKDWVTHIVWYEDVLVAALSNNSVFSMTVSASSHQPVSRMIQNASRRKITDLKIVDYKVVLTCPGYVHKIDLKNYSISSLKTGSLENFHIIPLNHEKESTILLMSNKTSYKVLLEDELHVTADNIIAPYLEKKFKKWSTIWNEFNNYETTLVIHGISLSPDGYSIAIVYDMERVAFKYKIASEQSFNIMFAPLYHTWTISERAVGLAWYQTYQIYNQSLPKLPENFSMNKKLLNGNYPISLDFQSYLNALMKSEEMRIIMFLNMTIDKPSILSFLEALYEYAINKKSELTNSFDLACVLSIAAILKREAPIYNGTLLMKNSFLEETFNLESFTADPETVTSTTNNTWKRCGVTLLPILTTHVKICPVSKQRVIDIKRDDLNDYGWFTRGLLERFNEISVYCGTTLEVM
Question: Does B1 bind (TFIIIC subunit τ138)?
Answer: binds

Question: Does B1 bind (TFIIIC subunit τ91)?
Answer: binds

B2: TFIIIC subunit τ55 (natural protein, S. cerevisiae, UniProt Q12415 1-435, looked up)
chain: MVVNTIYIARHGYRSNWLPEGPYPDPLTGIDSDVPLAEHGVQQAKELAHYLLSLDNQPEAAFASPFYRCLETVQPIAKLLEIPVYLERGIGEWYRPDRKPVIPVPAGYEILSKFFPGVISQEWDSTLTPNEKGETEQEMYMRFKKFWPLFIERVEKEYPNVECILLVTHAASKIALGMSLLGYDNPRMSLNENGDKIRSGSCSLDKYEILKKSYDTIDETDDQTSFTYIPFSDRKWVLTMNGNTEFLSSGEEMNWNFDCVAEAGSDADIKKRQMTKKTSSPIPEADDQTEVETVYISVDIPSGNYKERTEIAKSAILQYSGLETDAPLFRIGNRLYEGSWERLVGTELAFPNAAHVHKKTAGLLSPTEENETTNAGQSKGSSTANDPNIQIQEEDVGLPDSTNTSRDHTGDKEEVQSEKIYRIKERIVLSNVRPM
Question: Which results are given for B2?
Answer: binding result (TFIIIC subunit τ138): binds; binding result (TFIIIC subunit τ95): binds
